In the experiment the target is cynomolgus monkey FGF19 (cynomolgus monkey). The experiment is described as follows: SPR.

Drawing on patent US20220041706A1 (published 2022), this text covers Kd for one molecule.

Chain of cynomolgus monkey FGF19 (cynomolgus monkey) (chain, as listed by the source): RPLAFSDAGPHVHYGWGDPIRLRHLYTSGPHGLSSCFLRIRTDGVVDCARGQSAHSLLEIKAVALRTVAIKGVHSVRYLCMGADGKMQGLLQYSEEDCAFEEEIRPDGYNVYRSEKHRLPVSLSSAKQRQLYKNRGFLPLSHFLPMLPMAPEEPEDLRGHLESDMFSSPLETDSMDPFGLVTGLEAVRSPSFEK

B1: G1A8 (anti-FGF19 human IgG1 antibody, affinity-improved from 31A3) (antibody, V domains shown)
VH: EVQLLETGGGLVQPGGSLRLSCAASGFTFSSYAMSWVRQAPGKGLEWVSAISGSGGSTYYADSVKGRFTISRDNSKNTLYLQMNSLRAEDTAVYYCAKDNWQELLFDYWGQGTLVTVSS
VL: QAGLTQPASVSGSPGQSITISCTGTSSDVGGYNYVSWYQQHPGKAPKLMIYDVSNRPSGVSDRFSGSKSGNTASLTISGLQTEDEADYYCSSWTRSSGLVFGGGTQLTVLG
For the molecule B1, binding was put at a Kd of 1.63 nM.
